{
  "source": "patent US20230114801A1",
  "about": "(SYSTIMMUNE, published 2023)",
  "binders": {"B1": {"name": "SI-49PM1 (other)", "chain 1": "FLNSLFNQEVQIPLTESYCGPCPKNWICYKNNCYQFFDESKNWYESQASCMSQNASLLKVYSKEDQDLLKLVKSYHWMGLVHIPTNGSWQWEDGSILSPNLLTIIEMQKGDCALYASSFKGYIENCSTPNTYICMQRTVGGGGSGGGGSGGGGSGGGGSFLNSLFNQEVQIPLTESYCGPCPKNWICYKNNCYQFFDESKNWYESQASCMSQNASLLKVYSKEDQDLLKLVKSYHWMGLVHIPTNGSWQWEDGSILSPNLLTIIEMQKGDCALYASSFKGYIENCSTPNTYICMQRTVVDGGGGSGGGGSEVQLVESGGGLVQPGGSLRLSCAASGFTISTNAMSWVRQAPGKGLEWIGVITGRDITYYASWAKGRFTISRDNSKNTLYLQMNSLRAEDTAVYYCARDGGSSAITSNNIWGQGTLVTVSSASTKGPSVFPLAPSSKSTSGGTAALGCLVKDYFPEPVTVSWNSGALTSGVHTFPAVLQSSGLYSLSSVVTVPSSSLGTQTYICNVNHKPSNTKVDKRVEPKSCDKTHTCPPCPAPEAAGGPSVFLFPPKPKDTLMISRTPEVTCVVVDVSHEDPEVKFNWYVDGVEVHNAKTKPREEQYASTYRVVSVLTVLHQDWLNGKEYKCAVSNKALPAPIEKTISKAKGQPREPQVCTLPPSRDELTKNQVSLSCAVKGFYPSDIAVEWESNGQPENNYKTTPPVLDSDGSFFLVSKLTVDKSRWQQGNVFSCSVMHEALHNHYTQKSLSLSPGGGGGSGGGGSRSLVESGGGLVQPGGSLRLSCTASGFTISSYHMQWVRQAPGKCLEYIGTISSGGNVYYASSARGRFTISRPSSKNTVDLQMNSLRAEDTAVYYCARDSGYSDPMWGQGTLVTVSSGGGGSGGGGSGGGGSGGGGSDVVMTQSPSSVSASVGDRVTITCQASQNIRTYLSWYQQKPGKAPKLLIYAAANLASGVPSRFSGSGSGTDFTLTISDLEPGDAATYYCQSTYLGTDYVGGAFGCGTKVEIK", "chain 2": "ENVLTQSPASLSASPGERVTITCSASSSVSYMHWYQQKPGQAPKLWIYDTSKLASGVPSRFSGSGSGNDHTLTISSMEPEDFATYYCFQGSVYPFTFGQGTKVTVLGGGGSGGGGSGGGGSGGGGSQVTLKESGPGLVQPGQTLSLTCAFSGFSLSTSGMGVGWIRQPPGKGLEWLAHIWWDDDKRYNPALKSRLTISKDTSKNQVYLQMNSLDAEDTAVYYCARMELWSYYFDYWGQGTLVTVSSGGGGSGGGGSDVVMTQSPSTLSASVGDRVTINCQASESISSWLAWYQQKPGKAPKLLIYEASKLASGVPSRFSGSGSGTEFTLTISSLQPDDFATYYCQGYFYFISRTYVNSFGGGTKVEIKRTVAAPSVFIFPPSDEQLKSGTASVVCLLNNFYPREAKVQWKVDNALQSGNSQESVTEQDSKDSTYSLSSTLTLSKADYEKHKVYACEVTHQGLSSPVTKSFNRGECGGDKTHTCPPCPAPEAAGGPSVFLFPPKPKDTLMISRTPEVTCVVVDVSHEDPEVKFNWYVDGVEVHNAKTKPREEQYNSTYRVVSVLTVLHQDWLNGKEYKCAVSNKALPAPIEKTISKAKGQPREPQVYTLPPSRDELTKNQVSLWCLVKGFYPSDIAVEWESNGQPENNYKTTPPVLDSDGSFFLYSKLTVDKSRWQQGNVFSCSVMHEALHNRFTQKSLSLSPGGGGGSGGGGSDIQMTQSPSTLSASVGDRVTITCQASQSISSHLNWYQQKPGKAPKLLIYKASTLASGVPSRFSGSGSGTEFTLTISSLQPDDFATYYCQQGYSWGNVDNVFGGGTKVTVLGGGGSGGGGSGGGGSGGGGSEVQLLESGGGLVQPGGSLSLSCAASGFSFSSGYDMCWVRQAPGKGLEWIACIAAGSAGITYDANWAKGRFTISRDNSKNTLYLQMNSLRAEDTAVYYCARSAFSFDYAMDLWGQGTLVTVSS", "notes": "control penta-miniGNC; D1 NKG2D (tandem dimer), D2 αCD19, D3 αCD3 (Fab), D4 α4-1BB, D5 αPD-L1"}, "B2": {"name": "SI-35FS11 (Fc fusion)", "chain": "EPKSSDKTHTCPPCPAPEAAGAPSVFLFPPKPKDTLMISRTPEVTCVVVDVSHEDPEVKFNWYVDGVEVHNAKTKPREEQYNSTYRVVSVLTVLHQDWLNGKEYKCAVSNKALPAPIEKTISKAKGQPREPQVYTLPPSRDELTKNQVSLTCLVKGFYPSDIAVEWESNGQPENNYKTTPPVLDSDGSFFLYSKLTVDKSRWQQGNVFSCSVMHEALHNHYTQKSLSLSPGGGGGSGGGGSRSLVESGGGLVQPGGSLRLSCTASGFTISSYHMQWVRQAPGKGLEYIGTISSGGNVYYASSARGRFTISRPSSKNTVDLQMNSLRAEDTAVYYCARDSGYSDPMWGQGTLVTVSSGGGGSGGGGSGGGGSGGGGSDVVMTQSPSSVSASVGDRVTITCQASQNIRTYLSWYQQKPGKAPKLLIYAAANLASGVPSRFSGSGSGTDFTLTISDLEPGDAATYYCQSTYLGTDYVGGAFGGGTKVEIK", "notes": "Fc-scFv control for the α4-1BB domain; also called SI-35SF11; α4-1BB Fc-scFv"}, "B3": {"name": "SI-20C14 (antibody, human IgG1, kappa, V domains shown)", "VH": "EVQLVESGGGLVQPGGSLRLSCAASGFSFSGTQYVCWVRQAPGKGLEWIGCIYVDVANTYYATSVKGRFTISRDNSKNTLYLQMNSLRAEDTAVYYCASHDTVCAGCGLDLWGQGTLVTVSS", "VL": "DIQMTQSPSTLSASVGDRVTITCQASENIYSNLAWYQQKPGKAPKLLIYDASTLASGVPSRFSGSGSGTEFTLTISSLQPDDFATYYCQSTYYNNIIYGAAFGGGTKVEIKR", "notes": "monoclonal antibody control for the αCEA domain; also called αCEA mAb 656E11; SI-20C14 (anti-CEA 656E11)"}, "B4": {"name": "SI-3FS11 (Fc fusion)", "chain": "EPKSSDKTHTCPPCPAPEAAGAPSVFLFPPKPKDTLMISRTPEVTCVVVDVSHEDPEVKFNWYVDGVEVHNAKTKPREEQYNSTYRVVSVLTVLHQDWLNGKEYKCAVSNKALPAPIEKTISKAKGQPREPQVYTLPPSRDELTKNQVSLTCLVKGFYPSDIAVEWESNGQPENNYKTTPPVLDSDGSFFLYSKLTVDKSRWQQGNVFSCSVMHEALHNHYTQKSLSLSPGGGGGSGGGGSEVQLLESGGGLVQPGGSLRLSCAASGFSFSSGYDMCWVRQAPGKGLEWIACIAAGSAGITYDANWAKGRFTISRDNSKNTLYLQMNSLRAEDTAVYYCARSAFSFDYAMDLWGQGTLVTVSSGGGGSGGGGSGGGGSGGGGSDIQMTQSPSTLSASVGDRVTITCQASQSISSHLNWYQQKPGKAPKLLIYKASTLASGVPSRFSGSGSGTEFTLTISSLQPDDFATYYCQQGYSWGNVDNVFGGGTKVEIK", "notes": "Fc-scFv control for the αPD-L1 domain; also called SI-3SF11; αPD-L1 Fc-scFv"}},
  "key": {"NKG2D ligand": {"target": "NKG2D ligand", "assay": "BLI (Octet); conditions and ligand not stated"}, "CD19": {"target": "T1, CD19 (UniProt P15391 20-291, limits assumed)", "T1 sequence (looked up)": "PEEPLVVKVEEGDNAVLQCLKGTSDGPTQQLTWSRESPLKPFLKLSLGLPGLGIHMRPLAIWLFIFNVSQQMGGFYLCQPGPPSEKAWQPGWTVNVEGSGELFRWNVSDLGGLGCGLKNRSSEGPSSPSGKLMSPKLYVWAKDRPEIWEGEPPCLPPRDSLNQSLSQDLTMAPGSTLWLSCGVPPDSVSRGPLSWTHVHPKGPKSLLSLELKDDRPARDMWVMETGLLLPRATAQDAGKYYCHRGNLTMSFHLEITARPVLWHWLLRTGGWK", "assay": "BLI (Octet); conditions not stated"}, "human 4-1BB [1]": {"target": "T2, human 4-1BB (human, UniProt Q07011 24-186, limits assumed)", "T2 construct": "Soluble antigen in Octet; construct not described", "assay": "BLI (Octet); conditions not stated"}, "human CD3": {"target": "T3, human CD3 (human, UniProt P07766 23-126; P04234 22-105)", "T3 construct": "also called His-tagged human CD3; human CD3 (Acro CDD-H52W1)", "assay": "BLI (Octet); conditions not stated"}, "human PD-L1 [2]": {"target": "T4, human PD-L1 (human, UniProt Q9NZQ7 19-238)", "T4 construct": "Soluble antigen in Octet; bought; also called human PD-L1 (Acro PD1-H5229)", "assay": "BLI (Octet); conditions not stated"}, "human 4-1BB [3]": {"target": "T2, human 4-1BB", "assay": "BLI (Octet), unstapled control mAb or Fc-scFv"}, "CEA": {"target": "T5, CEA (UniProt P06731 35-685, limits assumed)", "T5 sequence (looked up)": "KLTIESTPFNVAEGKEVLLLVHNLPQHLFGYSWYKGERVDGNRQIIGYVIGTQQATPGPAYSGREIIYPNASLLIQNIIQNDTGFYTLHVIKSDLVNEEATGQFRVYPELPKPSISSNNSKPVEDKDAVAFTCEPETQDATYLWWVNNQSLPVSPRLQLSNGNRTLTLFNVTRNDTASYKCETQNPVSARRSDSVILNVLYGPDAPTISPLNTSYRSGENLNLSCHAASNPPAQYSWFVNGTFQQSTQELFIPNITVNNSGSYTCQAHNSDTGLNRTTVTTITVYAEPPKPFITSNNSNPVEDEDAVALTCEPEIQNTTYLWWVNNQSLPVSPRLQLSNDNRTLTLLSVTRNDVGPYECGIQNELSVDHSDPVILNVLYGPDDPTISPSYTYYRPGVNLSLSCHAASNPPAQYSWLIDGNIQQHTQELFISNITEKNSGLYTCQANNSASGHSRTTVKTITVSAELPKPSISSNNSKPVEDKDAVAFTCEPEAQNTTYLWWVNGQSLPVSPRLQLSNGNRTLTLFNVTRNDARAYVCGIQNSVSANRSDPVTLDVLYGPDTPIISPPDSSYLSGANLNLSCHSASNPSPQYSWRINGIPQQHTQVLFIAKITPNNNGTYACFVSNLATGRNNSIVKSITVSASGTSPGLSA", "assay": "BLI (Octet), unstapled control mAb or Fc-scFv"}, "human PD-L1 [4]": {"target": "T4, human PD-L1", "assay": "BLI (Octet), unstapled control mAb or Fc-scFv"}},
  "data": [
    {"binder": "B1", "values": [
      {"measurement": "Kd", "setting": "NKG2D ligand", "value": 24.5, "unit": "nM"},
      {"measurement": "Kd", "setting": "CD19", "value": 5.5, "unit": "nM"},
      {"measurement": "Kd", "setting": "human 4-1BB [1]", "value": 2.74, "unit": "nM"},
      {"measurement": "Kd", "setting": "human CD3", "value": 30.2, "unit": "nM"},
      {"measurement": "Kd", "setting": "human PD-L1 [2]", "value": 2.23, "unit": "nM"}
    ]},
    {"binder": "B2", "values": [
      {"measurement": "Kd", "setting": "human 4-1BB [3]", "value": 14.9, "unit": "nM"}
    ]},
    {"binder": "B3", "values": [
      {"measurement": "Kd", "setting": "CEA", "value": "< 1", "unit": "pM"}
    ]},
    {"binder": "B4", "values": [
      {"measurement": "Kd", "setting": "human PD-L1 [4]", "value": 0.94, "unit": "nM"}
    ]}
  ]
}
